# Assay results taken from patent US20250270341A1 (Alector, published 2025).
# T1: Full length mouse CD98hc on CHO cells (mouse, UniProt P10852 1-526)
# T1 construct: CHO cells stably overexpressing it; also called CHO-mouse CD98hc; CHO-mCD98hc
# T1 sequence: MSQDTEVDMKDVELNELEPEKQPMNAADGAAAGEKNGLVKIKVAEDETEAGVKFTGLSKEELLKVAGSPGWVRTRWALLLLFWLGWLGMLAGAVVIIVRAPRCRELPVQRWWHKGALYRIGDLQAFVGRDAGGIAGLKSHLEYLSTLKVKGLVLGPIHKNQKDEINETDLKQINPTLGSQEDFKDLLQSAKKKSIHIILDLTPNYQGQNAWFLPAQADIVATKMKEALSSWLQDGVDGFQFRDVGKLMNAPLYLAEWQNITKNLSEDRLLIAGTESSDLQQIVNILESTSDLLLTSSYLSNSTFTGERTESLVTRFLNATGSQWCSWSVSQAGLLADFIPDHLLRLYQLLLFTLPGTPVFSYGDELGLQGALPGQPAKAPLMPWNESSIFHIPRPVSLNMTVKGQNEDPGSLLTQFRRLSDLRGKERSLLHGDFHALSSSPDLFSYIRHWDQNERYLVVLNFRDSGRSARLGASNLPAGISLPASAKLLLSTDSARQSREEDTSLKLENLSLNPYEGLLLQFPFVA
# T2: Full length human CD98hc on CHO cells (human)
# T2 construct: CHO cells stably overexpressing it; also called CHO-human CD98hc; CHO-huCD98hc
# T2 chain: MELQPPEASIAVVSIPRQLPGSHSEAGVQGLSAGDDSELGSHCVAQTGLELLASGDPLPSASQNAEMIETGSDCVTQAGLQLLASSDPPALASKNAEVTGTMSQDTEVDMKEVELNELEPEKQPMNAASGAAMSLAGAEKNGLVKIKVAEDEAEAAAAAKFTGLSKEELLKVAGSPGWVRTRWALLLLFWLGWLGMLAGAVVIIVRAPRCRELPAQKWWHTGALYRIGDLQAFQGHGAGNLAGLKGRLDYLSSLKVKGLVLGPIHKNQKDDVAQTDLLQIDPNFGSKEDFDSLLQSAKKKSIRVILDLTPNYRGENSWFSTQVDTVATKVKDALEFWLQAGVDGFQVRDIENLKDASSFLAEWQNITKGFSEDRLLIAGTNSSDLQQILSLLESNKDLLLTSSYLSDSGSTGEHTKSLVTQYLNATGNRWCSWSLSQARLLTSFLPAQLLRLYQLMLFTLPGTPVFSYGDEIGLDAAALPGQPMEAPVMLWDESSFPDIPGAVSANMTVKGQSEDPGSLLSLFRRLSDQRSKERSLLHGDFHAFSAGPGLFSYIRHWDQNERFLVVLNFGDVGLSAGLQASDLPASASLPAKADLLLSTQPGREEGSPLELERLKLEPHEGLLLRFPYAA
# T3: human CD98hc endogenously expressed on HCMEC/D3 cells (human)
# T3 construct: human brain endothelial cell line
# T3 chain: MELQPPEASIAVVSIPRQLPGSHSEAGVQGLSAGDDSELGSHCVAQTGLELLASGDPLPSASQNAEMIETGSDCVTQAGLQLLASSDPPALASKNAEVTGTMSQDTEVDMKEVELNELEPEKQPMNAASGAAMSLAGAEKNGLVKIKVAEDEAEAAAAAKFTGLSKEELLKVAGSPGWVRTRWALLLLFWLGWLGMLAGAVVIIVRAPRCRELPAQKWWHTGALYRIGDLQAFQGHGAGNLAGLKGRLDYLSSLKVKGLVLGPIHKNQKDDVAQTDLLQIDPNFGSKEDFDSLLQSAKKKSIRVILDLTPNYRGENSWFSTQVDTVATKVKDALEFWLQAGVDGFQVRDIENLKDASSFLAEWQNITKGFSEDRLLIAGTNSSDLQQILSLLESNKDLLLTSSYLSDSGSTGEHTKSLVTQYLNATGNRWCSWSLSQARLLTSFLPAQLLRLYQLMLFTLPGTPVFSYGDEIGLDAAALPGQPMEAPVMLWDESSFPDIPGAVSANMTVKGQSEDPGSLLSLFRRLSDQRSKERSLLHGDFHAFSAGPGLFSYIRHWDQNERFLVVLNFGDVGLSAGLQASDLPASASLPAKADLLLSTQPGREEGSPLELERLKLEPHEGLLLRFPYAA
# Columns and labels:
# Test in all cases: FACS, hybridoma supernatant
# [1] = molecular target: T1, Full length mouse CD98hc on CHO cells
# Source text: The IgG positive hybridoma supernatants (898 in total) were initially screened for their ability to differentially bind CHO cells overexpressing human or mouse CD98hc cells compared to CHO parental cells by FACS. Overexpressing cells were harvested, washed, and labeled with various concentrations and combinations of CellTrace cell proliferation dyes CFSE and Violet (ThermoFisher, Cat #C34554 and Cat #34557, respectively) to create uniquely barcoded cell populations. Barcoded cells (5×10⁴ of each cell population) were aliquoted into 96-well U-bottom plates and incubated with 50 μl of hybridoma cell culture supernatant or 1 μg/ml of commercially available purified mouse anti-human CD98hc monoclonal antibody (Sigma Aldrich, Cat #SAB 4700503) and rat anti-mouse CD98hc antibody (Bio-Rad Laboratories, Hercules, CA, Cat #MCA2684) on ice for 30 minutes. […] Following this secondary antibody incubation, the cells were again washed twice with ice-cold FACS buffer and resuspended in a final volume of 50 μl of FACS buffer containing 0.25 μl/well propidium iodide (BD Biosciences, Cat #556463). Binding intensity on cells was analyzed using the FACS Canto system (BD Biosciences), with sorting gates drawn to exclude dead (i.e., propidium iodide-positive) cells. For each barcoded cell population, the ratio of APC Mean Fluorescence Intensity (MFI) divided by secondary antibody MFI was calculated for each anti-CD98hc hybridoma supernatant tested and reported in Table 5.
# [2] = molecular target: T1, Full length mouse CD98hc on CHO cells; remark: listed apart in the source
# [3] = molecular target: T2, Full length human CD98hc on CHO cells
# [4] = molecular target: T3, human CD98hc endogenously expressed on …
Binder,binding result [1],MFI ratio over secondary antibody [2],MFI ratio over secondary antibody [3],MFI ratio over secondary antibody [4]
"CD98HC.04.013 (antibody, V domains shown, hybridoma IgG) VH: EVQLVESGGDLGMPGGSLKLSCAASGFALSGYDMSWVRQTPDKRLEWVAYLSSGGGSTYYPYTVKGRFTISRDNAQNTLYLQMSSLKSEDTAIYYCARHSEVRPWFGYWGQGTLVTVSA VL: DIVMSQSPSSLAVSVGEKVTLTCKSSQSLLYSGNQKNYLAWYQQNPGQSPKLLIYWASTRESGVPDRFTGSGSGTDFTLTISSVKAEDLAVYYCQQYYTYPPTFGAGTKLGLK",no binding,1.1,21.2,124
"CD98HC.03.031 (antibody, V domains shown, hybridoma IgG) VH: QVQLQQSGAELVRPGVSVKISCKASGYTFTDYAMHWVKQSHAKSLEWIGVISTYYGDTTYNQKFKDKATMTVDKSSSTAYLELARLTSEDSAIYYCARVWLLSYAMDNWGQGTSVTVSS VL: DIVMTQSQRFMSTSVGDGVRITCKASQNVRTAVAWYQQKPGQSPKALINLAPNRHTGVPDRFTARGSGTDFTLTISNVQSEDLADYFCLQHWNYPLTFGAGTKLELK",no binding,1.2,38.9,198
"CD98HC.04.045 (antibody, V domains shown, hybridoma IgG) VH: QIQLVQSGPELKKPGETVKISCKASGYSITNFGMNWVKQAPGKGLKWMGWVNTYTGEPTYADDFKGRFAFSLETSASTASLQINNLKNEDTATYFCTRSVITYTMDYWGQGTSVTVSS VL: DIQLTQSPSSLSASLGERVSLTCRASQEISGYLSWLQQKPDGTIKRLIYAASTLDSGVPKRFSGSRSGSDYSLTISSLESEDFADYYCLQYASYPRTFGGGTKVEIK",no binding,1.2,2.4,4
"CD98HC.04.011 (antibody, V domains shown, hybridoma IgG) VH: DVQLQESGPDLVKPSQSLSLTCSVTVYSFTSVYSWHWIRQFPGNKLEWMGYIHDSGTTNYNPSLKSRISVTRDTSKNQFFLQLNSVTTEDTATYYCARGRPYGYDGFAYWGQGTLVTVSA VL: DIQMTQSSSYLSVSLGDRVTITCKASDHINNWLAWYQQKPGNAPRLLITGAVNLETGVPSRFSGSGSGKDYTLSITSLQTEDVATYYCQQYWSIPRTFGGGTNLEIK",no binding,1.1,31,192
"CD98HC.04.022 (antibody, V domains shown, hybridoma IgG) VH: EVQLQQSGAELVKPGASVKLSCTASGFNIKDTFMHWMKQRPEQGLEWIGRIDPANANTRYDPKFQGKATITTDTSSNTAYLQLSSLTSEDTAVYYCARDVYYDVWGAGTTVTVSS VL: DILMTQSPSSMSVSLGDTVTITCHASQGISSNIGWLQQKPGRSFKGLIYHGSNLEDGVPSRFTGSGSGTDYSLTISGLESEDFADYYCVQYAQFPRTFGGGTKLEIQ",no binding,1.1,16.6,102
"CD98HC.03.002 (antibody, V domains shown, hybridoma IgG) VH: DVQLVESGGGLVQPGGSRKLSCAASGFTFSTFGMHWVRQAPEKGLEWVAYISGGSTNIYYADTVKGRFTISRDNPKNTLFLQMTSLRSEDTAMYYCARETTLLATNFDYWGQGTTLTVSS VL: DIQMTQTTSSLSASLGDRVTISCRASQDISNYLNWYQQKPDGTVKLLIYYTSRLHSGVPSRFSGSGSGTDYSLTISNLEQEDIATYFCQQGSTLPRTFGGGTKLEIK",no binding,1,28.5,233
"CD98HC.04.006 (antibody, V domains shown, hybridoma IgG) VH: EVNLVESGGDLVQPGGSLRLSCATSGFTFTDYFMSWVRQPPGKALEWLGFIRNKAYGYTTEYSASVKGRFTISRDNSQSIFYLQMNTLRLEDSATYYCARGPFISTAPFAYWGQGTLVTVSA VL: DIVMSQSPSSLAVSVGETVTMSCKSSQSLLYSSNQKNYLAWYQQKPGQSPKLLIYWGSTRESGVPDRFTGSGSGTDFTLTISSVKAEDLAVYYCQHYYGYPWTFGGGTKLEIK",no binding,1.1,39,197

# The remaining lines, values ahead:
binding result [1],MFI ratio over secondary antibody [2],MFI ratio over secondary antibody [3],MFI ratio over secondary antibody [4],Binder
no binding,1.1,50.3,335,"CD98HC.04.018 (antibody, V domains shown, hybridoma IgG) VH: QIQLVQSGPELKKPGETVKISCKASGYTFRNYGMNWVKQAPGKGLKWMGWINTYTGEPTYAEDFKGRFAFSLETSASTAYLQINKLKNEDEATYFCARGEAHWYFDVWGAGTTVTVSS VL: QIVLTQSPAIMSASLGERVTMTCTASSSVSSSYLYWYQQKPGSSPKLWIYSIFNLASGVPARFSGSGSGTSYSLTISSMEAEDAATYYCHQYHRSPPTFGGGTKLEIK"
no binding,1.1,18.5,131,"CD98HC.04.009 (antibody, V domains shown, hybridoma IgG) VH: QVQLKESGPGLVAPSQSLSITCTVSGFSLTSYGVHWVRQPPGKGLEWLGVIWAGGSTYYNSALMSRLSISKDNAKSQVLLKMSSLQTDDTAMYYCARDNYGGVYLDVWGAGTTVTVSS VL: ENVLTQSPASMSASPGEKVTMTCRASSSVSSSYLHWYQQKSGASPKLWIYSTSNLASGVPARFSGSGSGTSYSLTISSVEAEDAATYYCQQYSGYPLTFGSGTKLEIK"
no binding,1.1,26.5,151,"CD98HC.04.010 (antibody, V domains shown, hybridoma IgG) VH: QVQLQQSGAELMKPGASVKISCKATGYTFSTYWIEWVKQRPGHGLEWIGEILPGSGTTTYNEKFKGKATFTADTSSNTAYMQLSSLTSEDSAVYYCARRTVYYRYEGIDYWGQGTTLTVSS VL: QIVLTQSPAIMSASPGEKVTITCSASSSVSYMFWFQQRPGTSPKLWIYTTSNLASGVPARFSGSGSGTSYSLTISRMEAEDAATYYCQQKNNYPFTFGSGTKLEIK"
no binding,1.1,28.3,155,"CD98HC.04.012 (antibody, V domains shown, hybridoma IgG) VH: QVQLQQSGADLVRPGDSVKISCKGSGYTFTDNTLHWVKQSHAKSLEWIGVISPYYGDASYNQKFKGKATMTVDKSSSTAYMELARLTSEDSAIYYCARVGGRLRLGYYFDHWGQGTTLTVSS VL: NIMMTQSPSSLAVSAGEKVTMNCKSSQSVLSSSNQKNYLAWYQQKPGQSPKLLIYWASTRESGVPARFTGSGSGTDFSLTITSVQAEDLAVYYCLQYLSSYTFGGGTKLEIK"
no binding,1.1,3.2,13.8,"CD98HC.04.003 (antibody, V domains shown, hybridoma IgG) VH: QVQLQQSGAELAKPGASLKMSCKASGYTFTDYYIHWVKQRPGQDLEWIGYINPNSAYTDSNQKFKDKATLTADKSSNTAYMQLSSLTSEDSAVYYCARKGHFYAPSFAYWGQGTLVTVSA VL: DIQMTQTTSSLSASLGDRVTISCRASQDISNYLNWYQQKPDGTVKLLIYYTSRLHSGVPSRFSGSGSGADYSLTISNLQQEDIATYFCQQGDTLPYTFGGGTKLEIE"
